Reference: article PMC4024478 (Protein expression and purification, 2014)

Legend:
Assay in all cases: pull-down
PDZ2 domain of PSD-95 = PDZ2 domain of PSD-95 (Mus musculus, UniProt Q62108 155-249)
[1] = target: MBP fusion protein containing a C-terminal PDZ2 Tag (Mus musculus, UniProt Q62108 155-249)
[2] = target: MBP fusion protein containing an N-terminal PDZ2 Tag (Mus musculus, UniProt Q62108 155-249)
[3] = target: MBP-GST fusion protein containing an internal PDZ2 Domain Tag (Mus musculus, UniProt Q62108 155-249)
[4] = target: HaloTag-PDZ1+PDZ2 fusion protein (PSD-95 PDZ1-2) on HaloLink resin (Mus musculus, UniProt Q62108 61-249)
[5] = target: PDZ2 Domain-HaloTag fusion protein (PSD-95 PDZ2) on HaloLink resin (Mus musculus, UniProt Q62108 155-249)
[6] = target: PDZ3 Domain-HaloTag fusion protein (PSD-95 PDZ3) on HaloLink resin (Mus musculus, UniProt Q62108 302-402)

Measured: binding result

PDZ3 Domain-HaloTag fusion protein (PSD-95 PDZ3) on HaloLink resin, sequence (Q62108 302-402): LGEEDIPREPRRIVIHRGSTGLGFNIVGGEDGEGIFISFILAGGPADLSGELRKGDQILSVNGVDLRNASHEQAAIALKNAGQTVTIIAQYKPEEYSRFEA
HaloTag-PDZ1+PDZ2 fusion protein (PSD-95 PDZ1-2) on HaloLink resin, sequence (Q62108 61-249): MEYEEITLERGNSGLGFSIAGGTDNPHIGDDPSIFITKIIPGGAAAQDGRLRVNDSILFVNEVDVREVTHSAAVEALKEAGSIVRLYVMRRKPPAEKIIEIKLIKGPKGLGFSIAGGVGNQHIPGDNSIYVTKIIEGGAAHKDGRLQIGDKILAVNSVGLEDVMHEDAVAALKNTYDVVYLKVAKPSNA
PDZ2 Domain-HaloTag fusion protein (PSD-95 PDZ2) on HaloLink resin, sequence (Q62108 155-249): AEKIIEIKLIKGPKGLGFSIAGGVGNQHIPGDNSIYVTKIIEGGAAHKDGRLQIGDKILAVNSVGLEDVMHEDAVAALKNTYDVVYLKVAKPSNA
MBP fusion protein containing an N-terminal PDZ2 Tag, sequence (Q62108 155-249): as above
MBP fusion protein containing a C-terminal PDZ2 Tag, sequence (Q62108 155-249): as above
PDZ2 domain of PSD-95, sequence (Q62108 155-249): as above
MBP-GST fusion protein containing an internal PDZ2 Domain Tag, sequence (Q62108 155-249): as above

B1: SIESDV peptide (free GluN2B Peptide Ligand) (peptide)
peptide: SIESDV
not listed: [6]
binds: all other assays above

B2: YKQTSV peptide (peptide)
peptide: YKQTSV
binds: [6]
